This experiment addresses human epidermal growth factor receptor expressed on M3-EGFR cells (human) (UniProt P00533).

“DTox-HMP-NLS-EGF modular nanotransporter”: the average fluorescence of M3-EGFR cell nuclei (anti-His-Tag Alexa Fluor 647) after 2 h incubation with 300 nM MNT (Relative units (RU)) was 44.3.

Regarding “EGF-DTox-HMP-NLS-[Nrf2-peptide] modular nanotransporter”, the average fluorescence of M3-EGFR cell nuclei (anti-His-Tag Alexa Fluor 647) after 2 h incubation with 300 nM MNT (Relative units (RU)) is 44.7.

The values above are taken from article PMC9697344.
